Measured values reported in the DeepSol protein solubility set.

Assay: soluble on expression in E. coli; label from the status in PepcDB or PDB records

Soluble on expression in E. coli, soluble:
MLTMKFLVPVDFSEITNPLLRTVKRVGEKVDCEVHLLHVIPPVLYLPYPETMGVSVIDIELLEKLEDEKKAEAKEKLKALEEFLKPVKARSHVDVGDPADVILDYEEKLNPDMVFLGGHKKGLIEKLLIGSTTEKVVKHGKKSDFVIKGSEVEFRKKVVIAYDFSKTAQKTAEFALKFLKNFKVSVEIVHVHESIEMPLIEKLKHKIEKEFSEEKKKILNELKGRFEEEGIKTEVKFLEGEDAVDVISSYVNETPEVELLIIGSKGLSGLKKLILGRTATKLLGKVNKPILIYKVQE, MMALDDTVTIKPIRAEHVESFHRALDAVSRERKYLSFLEAPPLEAVRAFVLDMIENDHPQFVAIADGDVIGWCDIRRQDRATRAHCGTLGMGILPAYRNKGLGARLMRRTLDAAHEFGLHRIELSVHADNARAIALYEKIGFAHEGRARDAVSIDGHYIDSLNMAIIFGN, MMDVSGVGFPSKVPWKKMSAEELENQYCPSRWVVRLGAEEALRTYSQIGIEATTRARATRKSLLHVPYGDGEGEKVDIYFPDESSEALPFFLFFHGGYWQSGSKDESAFMVHPLTAQGVAVVIVAYGIAPKGTLDHMVDQVTRSVAFVQKRYPSNKGIYLCGHSAGAHLAAMMLLADWTKHGVTPNLRGFFLVSGVFDLEPIVYTSQNVALQLTLEDAQRNNPQLKVAQAQPVDPTCRVLVVVGQFDSPEFHRQSWEFYQVLPVQTLCQGEWKASFEELHDVDHFEIVENLTQKDNVLTQIILKTIFQ, MMGMAVSTKLSIDEVNMLEKEDFVTKIGPIFEHSPWVAERAWAHRPFTSAENMYECMLEKVYEADKRLQLALLRAHPDLGTRLEISETSQSEQQRAGLSQLTEEEFAVFAELNKCYVDTFRFPFIMAVRGQTKNSIKEQMRKRLVNDEEQERKTALREVAKIAKFRLADLVVMGSRSLEHHHHHH, MMIAAAIFTTCVDGNKFFYHREIKVLRHLKRFNKPALKSIKSEDGDVIDCVPITNQPAFDHHLLKNHTIQMRPSFYPVSDSTYTKREAKAVTQVWHKAGECPKNTVPIRRTKKEDLLRPKSIRSFGRKSHQSIPRTTTFDPTLGHQYALMGVRNGKFYGTEVAINLWKPYVQIPKEFSLAQTWVVSGNGSSLNTIEAGWQVYPELYDDNNPRFFVYWTRDGYRKTGCYNLLCSGFVQTSNRYTVGGSITTMSRYRGTQYDLSVLIWKDQKTGNWWLRVNEKDVIGYWPGSLFNSLGREATRVEWGGEIINSKTGGRHTTTDMGSGHFADEGFKKASYFRNLKIVDGTNTLREPQGLYFFADKHNCYNVKTGNGGTSWGAHFFYGGPGRNVKCP, MMKEVLDAFRKSGEAEGFGHNKMSSSEVASHYNKVLQVGIEGRKESRIFFMRNMNNWVKSQLINDAKQRVNDNGVNNPRVLDLACGKGGDLKKWDIAGAKDVVMADVADVSIQQAEERYKQMFGYKKNNIFTVQFIVADCTKENLEDRIENKDPFDLVSCQFALHYSFVDEASARIFLKNAVGMLKPGGVFIGTLPDADRIVWSMRNGENGQFANEVCKITYENVEELAEGKVPLFGAKFHFSLDEQVNCPEFLAYFPLVKHLLEELDMELLFVHNFAEAINKWLEPGRRLLESMTGLETYPNEKLSGKSDDEYLEAKAKLDAFPEDERIKTMGTLSKSEWEAICMYLVFGFRKKKSEAEKTEEEPATTKPVAESESEQKEVTESEEKEDQEDCEHQEAQTN, MMKMIIAIVQDQDSQELADQLVKNNFRATKLATTGGFLRAGNTTFLCGVNDDRVDEILSVINQTCGNREQLVSPITPMGGSADSYIPYPVEVEVGGATVFVMPVDAFHQFLEHHHHHH, MMKQGMANSISMTWQLLCDEHGFTREHYNQLKKFSPETLREIIAEIASCHPSTSVLLRNKWLTPPEDILEQITREYERRIQNCPPFRSEKEAESWLNELSFAVIAPLYRVAPEQTEQVESFVLQLIAEQERVWELILTNDGYSWHCALYDILFHLVLRNMEDQPEHQKQRITKIFYEPDARLVAEEIKFRIQSLYDDEQKRALSELVNDFTSKE, MMLNAWHLPVPPFVKQSKDQLLITLWLTGEDPPQRIMLRTEHDNEEMSVPMHKQRSQPQPGVTAWRAAIDLSSGQPRRRYSFKLLWHDRQRWFTPQGFSRMPPARLEQFAVDVPDIGPQWAADQIFYQIFPDRFARSLPREAEQDHVYYHHAAGQEIILRDWDEPVTAQAGGSTFYGGDLDGISEKLPYLKKLGVTALYLNPVFKAPSVHKYDTEDYRHVDPQFGGDGALLRLRHNTQQLGMRLVLDGVFNHSGDSHAWFDRHNRGTGGACHNPESPWRDWYSFSDDGTALDWLGYASLPKLDYQSESLVNEIYRGEDSIVRHWLKAPWNMDGWRLDVVHMLGEAGGARNNMQHVAGITEAAKETQPEAYIVGEHFGDARQWLQADVEDAAMNYRGFTFPLWGFLANTDISYDPQQIDAQTCMAWMDNYRAGLSHQQQLRMFNQLDSHDTARFKTLLGRDIARLPLAVVWLFTWPGVPCIYYGDEVGLDGKNDPFCRKPFPWQVEKQDTALFALYQRMIALRKKSQALRHGGCQVLYAEDNVVVFVRVLNQQRVLVAINRGEACEVVLPASPFLNAVQWQCKEGHGQLTDGILALPAISATVWMN, MMLSATQPLSEKLPAHGCRHVAIIMDGNGRWAKKQGKIRAFGHKAGAKSVRRAVSFAANNGIEALTLYAFSSENWNRPAQEVSALMELFVWALDSEVKSLHRHNVRLRIIGDTSRFNSRLQERIRKSEALTAGNTGLTLNIAANYGGRWDIVQGVRQLAEKVQQGNLQPDQIDEEMLNQHVCMHELAPVDLVIRTGGEHRISNFLLWQIAYAELYFTDVLWPDFDEQDFEGALNAFANRERRFGGTEPGDETA

Soluble on expression in E. coli, not soluble:
MLTSRALRIPRKPFVDLDYARHMPSAYVERTKRTVPRKVFGDRFGAPDIKMYYVHPDDYVPSHRRPWEDKQISSHLHRSDKYFSAQLSNQYFNLRRPKSERMADTEWTFFPGDLVQVMVGKDKGRQGLVLTTSRDSSDVIVDGLHTKLGEDMEGSEKLGVDKTLRWQEQPLSVSKKQVMLVDPNDEQPCEARWQLNGPGDEYIRVSTRSGYEIPIPSQAKVTYEYLQPENYIEVEGKDTPADAVLERTYMPKVASFEQEIMEEMGIKEERTPKPTFWY, MLVAPFASQLPFVEETLHSSYQALQWGKNIFAIAHKTLSARLLNTVFPTEERTQPLSPELQAWLKERYEALLQQDWQDAAAGFYPATLLFDAPWEEFLRFYPLLLLDLPQMWQRARSRQFQEFAHNVRLEDYPQYYRQNFHYQTDGYLSDTSANLYDIQVELLFGGTADAMRRRVIAPIAQQVVAHPPTPPLRILDVACGTGRTLKQLRYAFPGAVLFGLDLSPAYLRKANALLATQTGALPQLIQGNAESLPYVDSYFSAITCVFLFHELPAPVRQNVIHECARVLQPGGIFVICDSIQSLDSPEQRPMMENFANLFHEPFYRNYIEDDLNLRLEKAGLVVKEVQHHFMSKYWVAVKPSLEHHHHHH, MLVDSFNRVIDYIRVSVTKQCNFRCQYCMPATPLNFFDNEELLPLDNVLEFLKIAIDEGVKKIRITGGEPLLRKGLDEFIAKLHAYNKEVELVLSTNGFLLKKMAKDLKNAGLAQVNVSLDSLKSDRVLKISQKDALKNTLEGIEESLKVGLKLKLNTVVIKSVNDDEILELLEYAKNRHIQIRYIEFMENTHAKSLVKGLKEREILDLIAQKYQIIEAEKPKQGSSKIYTLENGYQFGIIAPHSDDFCQSCNRIRLASDGKICPCLYYQDAIDAKEAIINKDTKNIKRLLKQSVINKPEKNMWNDKNSETPTRAFYYTGGLEHHHHHH, MLVSEMHGEVEAVKVGTEVQGRVLHWVYLYYYRNLLFDAGCPNTAQEVFEHFKGREIKAVLITHYHEDHIGAVNLFKEITDVYVPEESLEILRNPPDIPKYRKIGWGQPEKIEGVKVAKEVMKFDDVEVRMIKTPGHSFDHVSYLVDDKLFCGDLVINTAQMVCMREENLLKTIESIEKVLKYDFNYAYTGVGVASRDEVVEYLNYLKGLKEKAEMLYAEGKTIDEIVAACFPNPSQKAILMEFVSEKEWARENMVKSLLGLPRE, MLWRKRLFAHLYPGLSARHEALVAERKRALFREALRRARPERVLEIGPGPGTNLAHLPEGVAYLALEPNPFFHPRLREEARKRGLALTLLPGRAEAIPLPGGSVDLVVATLVLCSVADPEKAIEEVHRVLRPGGAYLFLEHVAAPKGAPLRLLQEAATPFFVFFGDGCHPNRKTLAQIQARFPRVEAEAFSLPLPVVAPHVAGLAFKELEHHHHHH, MMAIQASDMDISRFGSEIFRNSPRQSDLMIVSGTVTKKMAPRVRRIYDEMPYPKYVIAQGVCVIQGGPYNQGYSVVLGVDKVVPVDVYVPGCPPTPEALTNGIILLQKKIRGEADRLEHHHHHH, MMDEKLNFSYLFGSNAPYIEELYEAFLENPDAVDEKWKQYFTDLSKQPGTVAVDVAHTPIRESFVTLAKKKIASAVAGGADEAMLKKQVSVLRLISAYRIQGVGAAQLDPLKRIPPRDIEALDPKFHGLSDADMALQFNMGEGDFANRGKLPLSQIISNLKQTYCGHIALEYIYIPNTEERRWVRNYFESVLSTPHYNADQKRRILKEMTAAETLERYLHTKYVGQKRFGVEGGESAIAGLNYLIQNAGKDGVEEVIIGMAHRGRLNVLVNILGKKPGDLFAEFEGRAEIKLPSGDVKYHMGFSSDIATPHGPMHVSLAFNPSHLEIVNPVVEGSARAKQKRLGENGRDKVLPVLIHGDSAFIGLGVNQATFNLSKTRGYTTGGTVHIVINNQIGFTTSDIRDTRSTVHCTDIAKMVSAPVIHVNGDDPERVCFAIQAALDYRKKFHKDIVIDVVCYRKWGHNEGDDPTLTQPMMYKKVSQHPGARALYTEQLIAEGVVTQAEADGYIQAYRDALDKGEHVEQTTLSNFQRTQIDWSKYQGKDWREHIETGLPAADIERLTEKFTAVPEGFALHPTAKRVIEARKAMASGKQAIDWGMAETLAYASLVTKGHGVRISGEDSGRGTFSHRHAVLHDQKREKWDDGTYVPLRHMGEGMGEFLVIDSILNEEAVMAFEYGFACSAPDKLTIWEAQFGDFANGAQVTIDQFLSSGETKWGRLCGLTTILPHGYDGQGPEHSSARVERWLQLCSENNMQVIMPSEASQMFHLLQRQVLGSYRKPLVIFMSKRLLRFKGAMSPLENFTEGSTFRPVIGDTAERASNDSVKRVVLCAGQVYYDLEAGRAERKLEDDVAIVRVEQLYPFPYDEVKAELAKYPNAKSVVWAQEEPKNQGAFYQIRHRIEDVISEEQKLSYAGRPSSASPAVGYSSKHIAQLKQLVEDALAL, MMFVKNNFNTNNFDAELVEAIGNRLENNQFSDAILAGTKYLTTLLREKGQCEGDGAQLVGTVLGGQSPRIQINSLQSVSEQDEQRGFEALLRGYYQCIRNPRTHDNFPDTEDSCMRILIMLDTFIKYLKRDVAEFDYTAILERIYEVHFVNNSDYAEALISQIPEKKLLDFFQSLISRFNERPTKEIDSIFKAINQRFSGEEEKAAMRLLGDELRKASNNVEFANVFRIIKPSAWRNLPDDVLIRMENIIIEECKKGYLDFYSDATKGAIGTWGNTFGSKFKRRGDLGDALIGLLYDSWYTQNYVAKYYVFSIPSIITDDVKVKELADALAYATIVNGAKLLRTKLIDACKNYPDKLKEHLRDAVQQRMDSDKKYAEELLGQIS, MMKRARIIYNPTSGRELFKKSLPEVLQKLEQAGYEASCHATTGPGDATVAARQAADRKFDVVIAAGGDGTLNEVVNGLVGHEHRPKFGIIPVGTTNDFARAIGVPRSIEEAADIICEGKTVPLDLGRANDTYFINIAGGGRITELTYEVPSKLKTVLGQLAYYLKGIEMLPSLHPTYVEIEYDGKLLQEEITMFLITNTRSVGGFEKVAPYASINDGLFDLLVLKKGSIADLIKAATQAQRGEHINNPKVLYTQANRIKVHSPDKLMINLDGEYGGDAPMEFENIYHCLELFVPEHQEDAL
